Measured values as given in article PMC5360590 (EBioMedicine, 2017).

Legend:
[1] = biological target: Recombinant soluble HA of subtype H3 (A/Perth/16/2009, H3N2) (Influenza A virus A/Perth/16/2009 (H3N2), UniProt C6KNH7, strain); assay: BLI
[2] = biological target: Recombinant soluble HA of subtype H7 (A/Netherland/219/2003, H7N7) (Influenza A virus …, UniProt Q6VMK1); assay: BLI
[3] = biological target: Recombinant soluble HA of subtype H1 (A/California/07/2009, H1N1pdm09) (Influenza A virus A/California/07/2009 …, UniProt C3W5X2, strain); assay: BLI
[4] = biological target: HA of A/gull/Maryland/704/77 (H13), expressed in cells from pCAGGS (Influenza A virus …, UniProt P13103, strain); assay: immunostaining of cells or tissue
[5] = biological target: HA of A/chicken/Germany/N/49 (H10), expressed in cells from pCAGGS (Influenza A virus …, UniProt P12581, strain); assay: immunostaining of cells or tissue
[6] = biological target: HA of A/Singapore/1/57 (H2), expressed in cells from pCAGGS (Influenza A virus A/Singapore/1/1957 …, UniProt Q67333, strain); assay: immunostaining of cells or tissue
[7] = biological target: HA of A/turkey/Ontario/6118/68 (H8), expressed in cells from pCAGGS (Influenza A virus …, UniProt P03456, strain); assay: immunostaining of cells or tissue
[8] = biological target: HA of A/duck/Czechoslovakia/56 (H4), expressed in cells from pCAGGS (Influenza A virus …, UniProt P19696, strain); assay: immunostaining of cells or tissue
[9] = biological target: HA of A/mallard/Astrakhan/263/82 (H14), expressed in cells from pCAGGS (Influenza A virus …, UniProt P26136, strain); assay: immunostaining of cells or tissue
[10] = biological target: HA of A/duck/Memphis/546/74 (H11), expressed in cells from pCAGGS (Influenza A virus …, UniProt Q0A426, strain); assay: immunostaining of cells or tissue
[11] = biological target: HA of A/duck/Australia/341/83 (H15), expressed in cells from pCAGGS (Influenza A virus …, UniProt Q82565, strain); assay: immunostaining of cells or tissue
[12] = biological target: HA of A/turkey/Wisconsin/66 (H9), expressed in cells from pCAGGS (Influenza A virus …, UniProt P03457, strain); assay: immunostaining of cells or tissue
[13] = biological target: HA of A/California/04/2009 (CA04; H1N1pdm09) on virus particles (Influenza A virus A/California/04/2009 …, UniProt C3W5S1, strain); assay: BLI

B1: S9-1-10/5-1, recombinant monoclonal human IgG (IgG1, kappa) (antibody, V domains shown)
VH: QLHLQESGPGLLKPSATLSLTCTVSGGSMNNYYWSWVRQAPGKGLEWIGYIFHSGSTNYSPPLKSRVTISIDTATNQFFLRLNSVTAADTAVYYCARMSRGVFSSSRFFGLDVWGRGTAVAVSS
VL: EIVLTQSPATLSVSPGERATLSCRASQSVASNLAWYQQKPGQAPRLLISAASTRATDIPARFSGSGSGTEFTLTISSLQSEDFAVYYCQQYNNWLSFTFGPGTKVDMK
Kd [1]: 34 nM
koff [1]: 0.002 s⁻¹
kon [1]: 59000 M⁻¹ s⁻¹
Kd [2]: 0.9 nM
koff [2]: 0.00037 s⁻¹
kon [2]: 410000 M⁻¹ s⁻¹
Kd [3]: 0.0085 nM
koff [3]: 6.7e-06 s⁻¹
kon [3]: 790000 M⁻¹ s⁻¹
binding result [4]: binds
binding result [5]: binds
binding result [6]: binds
binding result [7]: binds
binding result [8]: binds
binding result [9]: binds
binding result [10]: binds
binding result [11]: binds
binding result [12]: binds
binding result [13]: binds
